Laboratory results published in patent US7888089B2, “eNOS mutations useful for gene therapy and therapeutic screening” (Yale University, priority 1999, dated 2011).
Values joined by “and” are separate entries in the source; they are usually repeats but may differ in a detail not shown here. Equal entries are not always repeated. Where two headings read alike, the source gives them in different places.

Tests used:
eNOS [1] = assay: Hemoglobin capture assay of NO production by purified eNOS; type: biochemical, bovine; settings: for Kcat (substrate Arginine, Hemoglobin capture): rate of NO production vs L-arginine, optimal conditions
Procedure: Assay for NOS Activity—NO production was measured by the hemoglobin capture assay as described (Kelm et al., 1988). Briefly, the reaction mixture contained eNOS (0.5-2.5 μg), oxyhemoglobin (8 μM), L-arginine (100 μM), BH4 (5 μM), CaCl2 (120 μM), calmodulin (120-200 nM), and NADPH (100 μM) in HEPES buffer (50 mM), pH 7.4. […] Under these conditions, free calcium was calculated using the WinMAXC program, version
NOS activity was monitored for linearity over 2 min at 401 nm, and NO production was calculated based on the change of absorbance using the extinction coefficient of 60 mM^−1 cm^−1. All reactions were carried out at 23° C., and each data point represents 3-8 observations. The extinction coefficient of 0.0033 μM^−1 cm^−1 at 276 nm was used for determination of calmodulin concentration. […] When the inactivation of eNOS was determined by the addition of EGTA (200-800 μM) to the reaction mixture, chelator was added 1 min after initiation of the reaction by NADPH. Identical conditions were used when NADPH-cytochrome c reductase activity was examined. These reactions contained CaM (120 nM) and CaCl2 (200 μM) in a 0.5-ml volume with eNOS (0.5 μg).

eNOS [2] = assay: NOS activity (3H-L-arginine to 3H-L-citrulline) in COS cell lysates; type: biochemical, bovine; settings: COS cells transfected with eNOS only, n=3
Excerpt: NOS activity assays: The conversion of ^3H-L-arginine to ^3H-L-citrulline was used to determine NOS activity in COS cell or endothelial cell lysates as previously described by Garcia-Cardena et al. (1998).

eNOS [3] = assay: Conversion of L-arginine to L-citrulline by purified eNOS; type: biochemical, bovine; settings: for Kcat (CaM, L-Citrulline): CaM activation of NOS activity
Procedure: The conversion of L-arginine to L-citrulline was assayed as described previously by Bredt et al. (1990). Briefly, eNOS (0.25-2 μg) was incubated for 3-10 min at 23° C. in the following reaction mixture: 3 pmol of L-[3H]arginine (55 Ci/mmol), 10-300 μM arginine, 1 mM NADPH, 120-200 nM calmodulin, 2 mM CaCl2, and 30 μM BH4 in a final reaction volume of 50-100 μl. The reaction was terminated by the addition of 0.5 ml of 20 mM HEPES, pH 5.5, containing 2 mM EGTA and EDTA. The reaction mixture was placed over Dowex AG50WX8, and the flow-through was counted on a Packard 1500 liquid scintillation analyzer.

cytochrome c = assay: NADPH-cytochrome c reductase activity of purified eNOS; type: biochemical; settings: for EC50: cytochrome c reduction; for Km: Km for NADPH
Procedure: Assays for Reductase Activity—NADPH-cytochrome c reductase activity and 2,6-dichlorophenolindophenol (DCIP) reduction were measured as a change in absorbance at 550 nm as described previously by Martasek et al. (1999) and Masters et al. (1967) using an extinction coefficient of 0.021 μM^−1 cm^−1 for both cytochrome c and DCIP. Briefly, a reaction mixture (1 ml) contained either cytochrome c (90 μM); DCIP (36 μM), HEPES buffer (50 mM) at pH 7.6, NaCl (250 mM), NADPH (100 μM), calmodulin (120 nM), and CaCl2 (200 μM); or other substances as indicated. The reaction was monitored for 60 s (at 23° C.) after the addition of eNOS. When inactivation of reductase activity was determined by the addition of EGTA (200-800 μM), chelator was added 1 min after initiation of the reaction and monitored for an additional 1 min. The reaction contained HEPES buffer (50 mM) at pH 7.6, CaM (120 nM), and CaCl2 (200 μM) and was initiated with NADPH (100 μM). No NaCl was added in experiments that examined EGTA inactivation of eNOS to mimic the conditions used in the hemoglobin capture experiments. […] Determination of the calcium EC50 for eNOS was performed as described above for the hemoglobin capture assay.

EC50 (eNOS [1]; EC50 for free calcium, NO production, 250 nM CaM, read-out: EC50 (Ca2+, Hemoglobin capture, 100 mM KCl)): 250 nM | EC50 (eNOS [3]; EC50 for CaM, NOS activity): 7 nM | EC50 (cytochrome c; EC50 for CaM, listed as S1179D eNOS, read-out: EC50 (CaM, Cytochrome c)): 13 nM | EC50 (cytochrome c; EC50 for CaM, read-out: EC50 (CaM, Cytochrome c)): 21 nM | EC50 (cytochrome c; EC50 for free calcium, read-out: EC50 (Ca2+, Cytochrome c, 100 mM KCl)): 220 nM | cytochrome c reduction activity compared with wild type eNOS (cytochrome c; FIG. 6B): significant increase in activity | basal cytochrome c reduction, S1179D compared with wild type eNOS (cytochrome c; absence of CaM): 4 fold | cytochrome c reduction, first value of pair (with superoxide dismutase) (cytochrome c; absence of CaM): 278 ± 9 min⁻¹ | cytochrome c reduction, second value of pair (without superoxide dismutase) (cytochrome c; absence of CaM): 288 ± 7 min⁻¹ | cytochrome c reduction with superoxide dismutase (cytochrome c; presence of CaM): 1179 ± 43 min⁻¹ | cytochrome c reduction without superoxide dismutase (cytochrome c; presence of CaM): 1518 ± 19 min⁻¹ | relative decrease in cytochrome c activity in the presence of superoxide dismutase (cytochrome c; presence of CaM): 22% | CaM-stimulated cytochrome c reduction (cytochrome c; presence of CaM, n=3-5): 1272 ± 55 min⁻¹ | level of stimulation of cytochrome c reduction by CaM (cytochrome c; with vs without CaM): 3 fold
B1: S1179D: bovine eNOS with serine 1179 mutated to aspartic acid (protein)
chain: GNLKSVGQEPGPPCGLGLGLGLGLCGKQGPASPAPEPSRAPAPATPHAPDHSPAPNSPTLTRPPEGPKFPRVKNWELGSITYDTLCAQSQQDGPCTPRCCLGSLVLPRKLQTRPSPGPPPAEQLLSQARDFINQYYSSIKRSGSQAHEERLQEVEAEVASTGTYHLRESELVFGAKQAWRNAPRCVGRIQWGKLQVFDARDCSSAQEMFTYICNHIKYATNRGNLRSAITVFPQRAPGRGDFRIWNSQLVRYAGYRQQDGSVRGDPANVEITELCIQHGWTPGNGRFDVLPLLLQAPDEAPELFVLPPELVLEVPLEHPTLEWFAALGLRWYALPAVSNMLLEIGGLEFSAAPFSGWYMSTEIGTRNLCDPHRYNILEDVAVCMDLDTRTTSSLWKDKAAVEINLAVLHSFQLAKVTIVDHHAATVSFMKHLDNEQKARGGCPADWAWIVPPISGSLTPVFHQEMVNYILSPAFRYQPDPWKGSATKGAGITRKKTFKEVANAVKISASLMGTLMAKRVKATILYASETGRAQSYAQQLGRLFRKAFDPRVLCMDEYDVVSLEHEALVLVVTSTFGNGDPPENGESFAAALMEMSGPYNSSPRPEQHKSYKIRFNSVSCSDPLVSSWRRKRKESSNTDSAGALGTLRFCVFGLGSRAYPHFCAFARAVDTRLEELGGERLLQLGQGDELCGQEEAFRGWAKAAFQASCETFCVGEEAKAAAQDIFSPKRSWKRQRYRLSTQAEGLQLLPGLIHVHRRKMFQATVLSVENLQSSKSTRATILVRLDTAGQEGLQYQPGDHIGICPPNRPGLVEALLSRVEDPPPPTESVAVEQLEKGSPGGPPPSWVRDPRLPPCTLRQALTFFLDITSPPSPRLLRLLSTLAEEPSEQQELETLSQDPRRYEEWKWFRCPTLLEVLEQFPSVALPAPLLLTQLPLLQPRYYSVSSAPNAHPGEVHLTVAVLAYRTQDGLGPLHYGVCSTWLSQLKTGDPVPCFIRGAPSFRLPPDPYVPCILVGPGTGIAPFRGFWQERLHDIESKGLQPAPMTLVFGCRCSQLDHLYRDEVQDAQERGVFGRVLTAFSREPDSPKTYVQDILRTELAAEVHRVLCLERGHMFVCGDVTMATSVLQTVQRILATEGDMELDEAGDVIGVLRDQQRYHEDIFGLTLRTQEVTSRIRTQDFSLQERHLRGAVPWAFDPPGPDTPGP
sensitivity of NO production to the addition of EGTA (eNOS [1]; 0-600 μM EGTA, 200 μM calcium): less sensitive to the addition of EGTA | NO production after calcium chelation with EGTA (eNOS [1]; 600 μM EGTA, 200 μM calcium): residual activity was still detected | calcium dependence of NO production after normalization for maximal activity (eNOS [1]; FIG. 8C, p<0.05): slightly increased | Km (eNOS [1]; Km for L-arginine, read-out: Km (substrate Arginine, Hemoglobin capture)): 2.5 µM | Km (eNOS [1]; Km for NADPH, in presence of CaM, read-out: Km (NADPH, Hemoglobin capture)): 36 µM | Kcat (NADPH, Hemoglobin capture) (eNOS [1]; NADPH dependence, in presence of CaM): 53 ± 3 min⁻¹ | increase in the Km for NADPH, S1179D compared with wild type eNOS (eNOS [1]; NO production, presence of CaM): 4 fold | Kcat (Ca2+, Hemoglobin capture, 100 mM KCl) (eNOS [1]; calcium activation, 250 nM CaM): 100 ± 3 min⁻¹ | maximal turnover rate, FIG. 8C (eNOS [1]; calcium-dependent NO production): 100 min1 | maximal turnover rate, FIG. 8A (eNOS [1]; calmodulin-dependent hemoglobin capture): 43 min⁻¹ | Kcat (substrate Arginine, Hemoglobin capture) (eNOS [1]): 84 ± 6 min⁻¹ | Kcat (substrate Arginine, Hemoglobin capture) (eNOS [1]; listed as S1179D eNOS): 84 ± 6 min⁻¹ | NOS activity in lysates (eNOS [2]): 131.8±36.7 pmol L-citrulline generated/mg protein | Kcat (CaM, L-Citrulline) (eNOS [3]): 43 ± 2 min⁻¹ | Kcat (CaM, L-Citrulline) (eNOS [3]; listed as S1179D eNOS): 43 min⁻¹ | kcat for CaM activation of cytochrome c reduction, S1179D compared with wild type (cytochrome c): about 2 fold | Kcat (CaM, Cytochrome c) (cytochrome c; CaM activation of cytochrome c reduction): 1140 min⁻¹ and 1140 ± 75 min⁻¹ | Km (cytochrome c; absence of CaM): 2000 nM | Km (cytochrome c; presence of CaM): 1900 nM | Kcat − CaM (NADPH, Cytochrome c) (cytochrome c; NADPH dependence, absence of CaM): 290 ± 9 min⁻¹ | Kcat − CaM (NADPH, Cytochrome c) (cytochrome c; NADPH dependence, absence of CaM, listed as eNOS S1179D): 290 min⁻¹ | Kcat + CaM (NADPH, Cytochrome c) (cytochrome c; NADPH dependence, presence of CaM): 840 min⁻¹ and 840 ± 59 min⁻¹ | Kcat (Ca2+, Cytochrome c, 100 mM KCl) (cytochrome c; calcium activation): 3798 ± 54 min⁻¹ | maximal turnover rate, FIG. 8D (cytochrome c; calcium-dependent cytochrome c reduction): 3810 min⁻¹ | maximal turnover rate, FIG. 8B (cytochrome c; calmodulin-dependent cytochrome c reduction): 1400 min1 | reductase activity after calcium chelation with EGTA (cytochrome c; highest concentration of EGTA): residual reductase activity was found
